{"source": "paper PMC9595563", "target": "SARS-CoV-2 spike protein (Wuhan-Hu-1) with C-terminal histidine, coated in the ELISA of Fig 2C (SARS-CoV-2) (UniProt P0DTC2)", "assay": "ELISA"}
{"substance": "LRRC15-Fc (from UniProt Q8TF66) (Fc fusion)", "values": [{"measurement": "Kd", "result": 109, "unit": "nM"}]}
